From patent publication US20220348667A1 (LUXEMBOURG INSTITUTE OF HEALTH LIH, published 2022)

T1: human ACKR2 stably expressed on HEK293T cells (HEK.ACKR2) (human, UniProt O00590 1-384)
T1 construct: whole, on cells; also called hACKR2; HEK.hACKR2
T1 sequence (looked up): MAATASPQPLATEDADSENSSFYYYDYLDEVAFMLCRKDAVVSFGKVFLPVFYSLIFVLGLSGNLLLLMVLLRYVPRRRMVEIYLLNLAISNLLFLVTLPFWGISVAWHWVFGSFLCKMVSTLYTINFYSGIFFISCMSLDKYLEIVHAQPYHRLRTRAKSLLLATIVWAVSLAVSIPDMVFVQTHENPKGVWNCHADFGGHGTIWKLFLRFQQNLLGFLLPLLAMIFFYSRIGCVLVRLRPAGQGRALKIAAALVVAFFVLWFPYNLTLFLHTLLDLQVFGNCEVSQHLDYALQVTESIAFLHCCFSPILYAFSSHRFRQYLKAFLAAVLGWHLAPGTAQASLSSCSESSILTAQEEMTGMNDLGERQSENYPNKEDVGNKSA


Legend:
[1] = molecular target: murine ACKR2 stably overexpressed on HEK293T cells (HEK.mACKR2) (mouse) (UniProt O08707); test: flow cytometry binding competition on HEK.mACKR2 cells, CCL5-AF647 (30 nM) as competitor
Sequence of murine ACKR2 stably overexpressed on HEK293T cells (HEK.mACKR2) (mouse) (O08707 whole entry): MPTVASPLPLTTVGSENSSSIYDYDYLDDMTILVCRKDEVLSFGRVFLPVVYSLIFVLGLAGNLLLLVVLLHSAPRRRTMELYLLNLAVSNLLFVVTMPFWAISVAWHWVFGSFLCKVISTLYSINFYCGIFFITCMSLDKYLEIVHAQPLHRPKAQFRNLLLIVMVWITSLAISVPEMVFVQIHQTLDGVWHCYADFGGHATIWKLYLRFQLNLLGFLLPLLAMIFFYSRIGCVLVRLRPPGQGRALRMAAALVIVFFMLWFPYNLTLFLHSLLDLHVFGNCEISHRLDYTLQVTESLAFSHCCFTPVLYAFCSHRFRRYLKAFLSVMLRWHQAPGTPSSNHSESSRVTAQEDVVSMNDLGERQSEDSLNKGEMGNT

[2] = molecular target: T1, human ACKR2 stably expressed on HEK293T …; test: flow cytometry, displacement of CXCL10-Cy5 from HEK.ACKR2 cells by unlabelled chemokine (50 nM)
Method: HEK293T and HEK-ACKR2 cells were incubated with CXCL10-Cy5 at indicated concentrations for 45 minutes at 37° C., then washed twice with FACS buffer (PBS, 1% BSA, 0.1% NaN₃). Dead cells were excluded using Zombie Green viability dye (BioLegend). ACKR2-negative HEK293T cells were used to evaluate non-specific binding of CXCL10-Cy5. For binding competition with unlabelled chemokines (50 nM), the signal obtained for CXCL10-Cy5 in the absence of unlabelled chemokines was used to define 100% binding. Ligand binding was quantified by mean fluorescence intensity on a BD FACS Fortessa cytometer (BD Biosciences).

% displacement of CCL5-AF647 at 50 µg/ml antibody [1] [%] | binding result [2] | Molecule
> 80 |  | polyclonal Goat anti-mACKR2 (ab1656, Abcam) (antibody)
 | binds | CCL5 (unlabelled, PeproTech) (ligand, human, UniProt P13501 24-91, looked up) SPYSSDTTPCCFAYIARPLPRAHIKEYFYTSGKCSNPAVVFVTRKNRQVCANPEKKWVREYINSLEMS
